In the supplement of paper PMC9112550, “Optimization of the antimicrobial peptide Bac7 by deep mutational scanning” (BMC Biology, 2022):

Tested on: Escherichia coli TOP10
Experiment: shrunken log2 fold change of peptide-encoding DNA abundance (4.5 h post-induction vs induction); higher = less antimicrobial activity (less host growth inhibition)
Conditions: time post-induction: 4.5 h; library: site-saturation at positions 5, 18, 19, 20
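Further: peptides expressed intracellularly from a pBAD plasmid library in pooled LB shake-flask culture, induced with 0.3% L-arabinose, DNA abundance read by NGS, three biological replicates, DESeq2 with apeglm shrinkage.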

In order of rising “shrunken log2 fold change” value:
1. RRIRYRPPRLPRPRPRPCTAPRP  -1.4
2. RRIRERPPRLPRPRPRPCYKPRP  -0.901
3. RRIRFRPPRLPRPRPRPSFIPRP  -0.831
4. RRIRNRPPRLPRPRPRPCFMPRP  -0.742
5. RRIRTRPPRLPRPRPRPQNNPRP  -0.716
6. RRIRQRPPRLPRPRPRPYHYPRP  -0.711
7. RRIRYRPPRLPRPRPRPATMPRP  -0.69
8. RRIRCRPPRLPRPRPRPCPDPRP  -0.612
9. RRIRLRPPRLPRPRPRPMLLPRP  -0.56
10. RRIRSRPPRLPRPRPRPIISPRP  -0.472
11. RRIRFRPPRLPRPRPRPWISPRP  -0.456
12. RRIRDRPPRLPRPRPRPNKHPRP  -0.425
13. RRIRSRPPRLPRPRPRPSTGPRP  -0.417
14. RRIRDRPPRLPRPRPRPRWIPRP  -0.376
15. RRIRPRPPRLPRPRPRPSKEPRP  -0.374
16. RRIRRRPPRLPRPRPRPSFYPRP  -0.36
17. RRIRSRPPRLPRPRPRPSSYPRP  -0.344
18. RRIRFRPPRLPRPRPRPLYWPRP  -0.319
19. RRIRMRPPRLPRPRPRPHNKPRP  -0.305
20. RRIRYRPPRLPRPRPRPLPNPRP  -0.296
21. RRIRERPPRLPRPRPRPEKFPRP  -0.287
22. RRIRYRPPRLPRPRPRPLLCPRP  -0.287
23. RRIRHRPPRLPRPRPRPLQFPRP  -0.28
24. RRIRRRPPRLPRPRPRPHRIPRP  -0.279
25. RRIRTRPPRLPRPRPRPILYPRP  -0.275
26. RRIRSRPPRLPRPRPRPMFFPRP  -0.274
27. RRIRRRPPRLPRPRPRPNIPPRP  -0.24
28. RRIRFRPPRLPRPRPRPFAFPRP  -0.239
29. RRIRNRPPRLPRPRPRPVPCPRP  -0.237
30. RRIRDRPPRLPRPRPRPQYVPRP  -0.229
31. RRIRVRPPRLPRPRPRPWSFPRP  -0.225
32. RRIRKRPPRLPRPRPRPRMCPRP  -0.211
33. RRIRNRPPRLPRPRPRPFHRPRP  -0.211
34. RRIRYRPPRLPRPRPRPDLKPRP  -0.21
35. RRIRTRPPRLPRPRPRPTYQPRP  -0.206
36. RRIRSRPPRLPRPRPRPCMNPRP  -0.206
37. RRIRGRPPRLPRPRPRPFMSPRP  -0.192
38. RRIRIRPPRLPRPRPRPSQKPRP  -0.187
39. RRIRQRPPRLPRPRPRPWWIPRP  -0.185
40. RRIRPRPPRLPRPRPRPYPIPRP  -0.175
41. RRIRWRPPRLPRPRPRPWYRPRP  -0.174
42. RRIRARPPRLPRPRPRPNKSPRP  -0.174
43. RRIRNRPPRLPRPRPRPYIAPRP  -0.172
44. RRIRIRPPRLPRPRPRPRTNPRP  -0.159
45. RRIRCRPPRLPRPRPRPPMYPRP  -0.156
46. RRIRARPPRLPRPRPRPYWLPRP  -0.148
47. RRIRMRPPRLPRPRPRPLWFPRP  -0.147
48. RRIRYRPPRLPRPRPRPPGTPRP  -0.146
49. RRIRNRPPRLPRPRPRPYGCPRP  -0.146
50. RRIRNRPPRLPRPRPRPPSYPRP  -0.14
51. RRIRLRPPRLPRPRPRPCDPPRP  -0.14
52. RRIRVRPPRLPRPRPRPMWCPRP  -0.139
53. RRIRWRPPRLPRPRPRPIGMPRP  -0.131
54. RRIRNRPPRLPRPRPRPIWEPRP  -0.131
55. RRIRWRPPRLPRPRPRPEFYPRP  -0.129
56. RRIRYRPPRLPRPRPRPWDPPRP  -0.0966
57. RRIRLRPPRLPRPRPRPDVEPRP  -0.0825
58. RRIRERPPRLPRPRPRPKLIPRP  -0.0786
59. RRIRTRPPRLPRPRPRPYENPRP  -0.0748
60. RRIRWRPPRLPRPRPRPSQRPRP  -0.0741
61. RRIRQRPPRLPRPRPRPCMVPRP  -0.0725
62. RRIRQRPPRLPRPRPRPWHCPRP  -0.0682
63. RRIRERPPRLPRPRPRPLHKPRP  -0.0653
64. RRIRWRPPRLPRPRPRPNPCPRP  -0.0647
65. RRIRQRPPRLPRPRPRPQHSPRP  -0.062
66. RRIRQRPPRLPRPRPRPIKLPRP  -0.0569
67. RRIRHRPPRLPRPRPRPDSWPRP  -0.0468
68. RRIRIRPPRLPRPRPRPQYVPRP  -0.0421
69. RRIRPRPPRLPRPRPRPQRCPRP  -0.0388
70. RRIRNRPPRLPRPRPRPFSLPRP  -0.0274
71. RRIRHRPPRLPRPRPRPETCPRP  -0.0251
72. RRIRNRPPRLPRPRPRPVKEPRP  -0.0182
73. RRIRMRPPRLPRPRPRPSFVPRP  -0.0144
74. RRIRKRPPRLPRPRPRPTQAPRP  -0.00908
75. RRIRYRPPRLPRPRPRPMYCPRP  -0.00674
76. RRIRIRPPRLPRPRPRPESFPRP  -0.0048
77. RRIRERPPRLPRPRPRPDQAPRP  -0.00195
78. RRIRWRPPRLPRPRPRPDQEPRP  -0.00154
79. RRIRWRPPRLPRPRPRPIWMPRP  -0.000467
80. RRIRPRPPRLPRPRPRPQTLPRP  0.000929
81. RRIRRRPPRLPRPRPRPDKSPRP  0.00757
82. RRIRHRPPRLPRPRPRPLVGPRP  0.00867
83. RRIRRRPPRLPRPRPRPFNWPRP  0.0111
84. RRIRSRPPRLPRPRPRPHTKPRP  0.0141
85. RRIRRRPPRLPRPRPRPDQQPRP  0.0145
86. RRIRWRPPRLPRPRPRPFCLPRP  0.0169
87. RRIRLRPPRLPRPRPRPEMIPRP  0.0183
88. RRIRARPPRLPRPRPRPIHTPRP  0.0197
89. RRIRNRPPRLPRPRPRPMYYPRP  0.0222
90. RRIRTRPPRLPRPRPRPFLQPRP  0.0237
91. RRIRMRPPRLPRPRPRPEEGPRP  0.0237
92. RRIRSRPPRLPRPRPRPTCHPRP  0.024
93. RRIRSRPPRLPRPRPRPDSWPRP  0.0247
94. RRIRYRPPRLPRPRPRPIPRPRP  0.0268
95. RRIRYRPPRLPRPRPRPGLRPRP  0.0396
96. RRIRIRPPRLPRPRPRPEDPPRP  0.0426
97. RRIRRRPPRLPRPRPRPATKPRP  0.0529
98. RRIRIRPPRLPRPRPRPWHRPRP  0.0544
99. RRIRLRPPRLPRPRPRPPAYPRP  0.0545
100. RRIRCRPPRLPRPRPRPCDGPRP  0.0624
101. RRIRPRPPRLPRPRPRPHFRPRP  0.0655
102. RRIRERPPRLPRPRPRPTPNPRP  0.0742
103. RRIRRRPPRLPRPRPRPDKQPRP  0.0803
104. RRIRWRPPRLPRPRPRPVDGPRP  0.0816
105. RRIRPRPPRLPRPRPRPQPAPRP  0.0892
106. RRIRSRPPRLPRPRPRPRFKPRP  0.0925
107. RRIRRRPPRLPRPRPRPTDCPRP  0.0967
108. RRIRMRPPRLPRPRPRPCRYPRP  0.11
109. RRIRRRPPRLPRPRPRPIGHPRP  0.113
110. RRIRMRPPRLPRPRPRPMAAPRP  0.117
111. RRIRSRPPRLPRPRPRPRRNPRP  0.128
112. RRIRDRPPRLPRPRPRPFVIPRP  0.129
113. RRIRQRPPRLPRPRPRPLGTPRP  0.139
114. RRIRKRPPRLPRPRPRPLMDPRP  0.16
115. RRIRKRPPRLPRPRPRPMKKPRP  0.172
116. RRIRDRPPRLPRPRPRPVPWPRP  0.189
117. RRIRPRPPRLPRPRPRPEEDPRP  0.192
118. RRIRVRPPRLPRPRPRPLVAPRP  0.196
119. RRIRRRPPRLPRPRPRPIKQPRP  0.197
120. RRIRMRPPRLPRPRPRPQIAPRP  0.208
121. RRIRKRPPRLPRPRPRPACHPRP  0.211
122. RRIRIRPPRLPRPRPRPNAWPRP  0.213
123. RRIRWRPPRLPRPRPRPTNEPRP  0.225
124. RRIRCRPPRLPRPRPRPDDQPRP  0.23
125. RRIRDRPPRLPRPRPRPPLLPRP  0.252
126. RRIRDRPPRLPRPRPRPPKWPRP  0.27
127. RRIRDRPPRLPRPRPRPTDMPRP  0.284
128. RRIRQRPPRLPRPRPRPVEGPRP  0.294
129. RRIRQRPPRLPRPRPRPTRVPRP  0.305
130. RRIRVRPPRLPRPRPRPACPPRP  0.311
131. RRIRWRPPRLPRPRPRPNLEPRP  0.322
132. RRIRDRPPRLPRPRPRPRQWPRP  0.36
133. RRIRARPPRLPRPRPRPSDWPRP  0.402
134. RRIRSRPPRLPRPRPRPGFEPRP  0.418
135. RRIRPRPPRLPRPRPRPLAWPRP  0.439
136. RRIRDRPPRLPRPRPRPNCTPRP  0.476
137. RRIRQRPPRLPRPRPRPEFAPRP  0.482
138. RRIRQRPPRLPRPRPRPSHNPRP  0.547
139. RRIRSRPPRLPRPRPRPGVCPRP  0.562
140. RRIRGRPPRLPRPRPRPAQQPRP  0.57
141. RRIRWRPPRLPRPRPRPLFAPRP  0.579
142. RRIRYRPPRLPRPRPRPMRAPRP  0.605
143. RRIRWRPPRLPRPRPRPAWRPRP  0.642
144. RRIRKRPPRLPRPRPRPGSGPRP  0.708
145. RRIRARPPRLPRPRPRPWDWPRP  0.991
146. RRIRGRPPRLPRPRPRPLVEPRP  1.2
147. RRIRGRPPRLPRPRPRPELPPRP  1.33
148. RRIRMRPPRLPRPRPRPGSGPRP  1.34
149. RRIRGRPPRLPRPRPRPPPQPRP  1.55
150. RRIRDRPPRLPRPRPRPDCWPRP  1.65
